This note sets out measurements from publication PMC11245101.

“And” between values parts separate entries of the source, which are not always exact repeats. Equal values may be shown once.

What all share (assay): AUC
Experiment [1] deals with TDP-43 CTD S→E S273C, disulfide cross-linked dimer (human).
For experiment [2], the target named is TDP-43 CTD S→E S305C, disulfide cross-linked dimer (human).
In experiment [3] the target is TDP-43 CTD S→E S317C, disulfide cross-linked dimer (human).

“TDP-43 CTD S→E S273C, disulfide cross-linked dimer (domain or fragment)” returned a fraction of tetramer in experiment [1] of less than 1%.

What is called stoichiometry N is the number of molecules, sites or subunits per partner or assembly. In the case of “TDP-43 CTD S→E S305C, disulfide cross-linked dimer (domain or fragment)”, in experiment [2], the Kd dimer-tetramer is 58 µM; the Kd tetramer-octamer turned out to be 4.7 µM; the stoichiometry N was 4 and 8.

As usually defined, the Kd is the equilibrium constant for the complex coming apart. Low values mean higher affinity, high ones lower affinity. In experiment [3], “TDP-43 CTD S→E S317C, disulfide cross-linked dimer (domain or fragment)” displayed a dissociation constant (Kd) of 46 µM and a stoichiometry N of 4.
